This assay addresses spike protein (Spike, S protein) of SARS-CoV-2 (UniProt P0DTC2 14-1273). Put plainly: SPR. On the technique in general: In SPR one partner is held on a chip, and binding of the other changes the refractive index at the surface.

B1: antigen-binding unit ABU-174 (antibody, V domains shown)
VH: QVQLQQWGAGLLKPSETLSLTCAVYGGSFSDYYWNWIRRPPGKGLEWIGEITHSGSTNYNPSLKSRVTISVDTSKNQFSLKLSSVTAADTAVYYCARGQGYGRVLLWFGEWGQGTLVTVSS
VL: EIVLTQSPATLSLSPGERATLSCRASQSVSTYLAWYQQKPGQAPRLLIYDASNRATGIPARFSGSGSGTDFTLTISSLEPEDFAVYYCQQRSNWITFGQGTRLEIK
Regarding B1, the dissociation constant Kd (as a rule, the constant that tells how readily two partners part at equilibrium) came out at 0.285 nM.

The record behind these values is patent US20230183322A1 (published 2023).
